In general, Kd refers to the concentration at which binding is half-saturated. Higher therefore signals weaker binding.

The source of these data is patent publication US20170354129A1 (NATIONAL AGRICULTURE AND FOOD RESEARCH ORGANIZATION, published 2017).

A value given as a limit tells only on which side of the number the result lay.

Experiment [1] has as its target T1, LDL (unmodified low density lipoprotein) (UniProt P04114 28-4563).
T1 construct: Lipoprotein particle, not a pure protein; also called LDLs; unmodified LDL
The experiment is described as follows: direct ELISA, lowest antigen amount at which detection was possible. The procedure: (§1) Antigen recognition activity of a purified single chain antibody was evaluated by direct ELISA. LDLs, acetylated LDLs, partially oxidized LDLs, and fully oxidized LDLs were used as antigens. 0.05 to 10 μg/ml of antigen solution was added to a polystyrene 96-well microwell plate at 100 μl/well and allowed to adsorb overnight at 4° C. The plate was washed three times with PBS (200 μl/well). Blocking buffer (0.25% BSA/PBS) was added at 200 μl/well. The mixture was left standing for 2 hours at room temperature. After the plate was washed three times with PBS (200 μl/well), 2.5 μg/ml/PBS single chain antibody was added at 100 μl/well and reacted for 1 hour at room temperature. The plate was washed five times with PBS (200 μl/well) and anti-His-HRP antibody diluted 1000-fold with blocking buffer was added at 100 μl/well and reacted for 1 hour at room temperature. After washing the plate five times with PBS (200 μl/well), 3,3′,5,5′-tetramethyl-benzidine (TMB) was added at 50 μl/well. The luminescence was examined and 150μ/well of 1N HCl was added to suspend the reaction. Subsequently, the absorbance at 450 nm for each well of the plate was measured (FIG. 11).
(§2) The detection limit was calculated as the detection limit at the lowest concentration at which detection was possible in measured specimens at different dilution levels.
For orientation: An ELISA detects its analyte on a solid surface through an enzyme-linked reagent.

In a further experiment the target is T2, acetylated LDL (UniProt P04114 28-4563, acetylated (sites not given)).
T2 construct: Lipoprotein particle; also called AcLDL; Ac LDLs
The description is as above. The procedure:
as §1, §2

For a further experiment, the target named is T3, partially oxidized LDL (UniProt P04114 28-4563, oxidatively modified with copper for 4 hours at 37 C (sites not given)).
T3 construct: Lipoprotein particle; also called moOxLDL; moLDL
The description is as above. The procedure:
as §1, §2

The target of experiment [2] is T4, fully oxidized LDL (UniProt P04114 28-4563, oxidatively modified with copper for 20 hours at 37 C (sites not given)).
T4 construct: Lipoprotein particle; also called fuOxLDL; FoxLDL
T4 sequence (P04114 28-4563): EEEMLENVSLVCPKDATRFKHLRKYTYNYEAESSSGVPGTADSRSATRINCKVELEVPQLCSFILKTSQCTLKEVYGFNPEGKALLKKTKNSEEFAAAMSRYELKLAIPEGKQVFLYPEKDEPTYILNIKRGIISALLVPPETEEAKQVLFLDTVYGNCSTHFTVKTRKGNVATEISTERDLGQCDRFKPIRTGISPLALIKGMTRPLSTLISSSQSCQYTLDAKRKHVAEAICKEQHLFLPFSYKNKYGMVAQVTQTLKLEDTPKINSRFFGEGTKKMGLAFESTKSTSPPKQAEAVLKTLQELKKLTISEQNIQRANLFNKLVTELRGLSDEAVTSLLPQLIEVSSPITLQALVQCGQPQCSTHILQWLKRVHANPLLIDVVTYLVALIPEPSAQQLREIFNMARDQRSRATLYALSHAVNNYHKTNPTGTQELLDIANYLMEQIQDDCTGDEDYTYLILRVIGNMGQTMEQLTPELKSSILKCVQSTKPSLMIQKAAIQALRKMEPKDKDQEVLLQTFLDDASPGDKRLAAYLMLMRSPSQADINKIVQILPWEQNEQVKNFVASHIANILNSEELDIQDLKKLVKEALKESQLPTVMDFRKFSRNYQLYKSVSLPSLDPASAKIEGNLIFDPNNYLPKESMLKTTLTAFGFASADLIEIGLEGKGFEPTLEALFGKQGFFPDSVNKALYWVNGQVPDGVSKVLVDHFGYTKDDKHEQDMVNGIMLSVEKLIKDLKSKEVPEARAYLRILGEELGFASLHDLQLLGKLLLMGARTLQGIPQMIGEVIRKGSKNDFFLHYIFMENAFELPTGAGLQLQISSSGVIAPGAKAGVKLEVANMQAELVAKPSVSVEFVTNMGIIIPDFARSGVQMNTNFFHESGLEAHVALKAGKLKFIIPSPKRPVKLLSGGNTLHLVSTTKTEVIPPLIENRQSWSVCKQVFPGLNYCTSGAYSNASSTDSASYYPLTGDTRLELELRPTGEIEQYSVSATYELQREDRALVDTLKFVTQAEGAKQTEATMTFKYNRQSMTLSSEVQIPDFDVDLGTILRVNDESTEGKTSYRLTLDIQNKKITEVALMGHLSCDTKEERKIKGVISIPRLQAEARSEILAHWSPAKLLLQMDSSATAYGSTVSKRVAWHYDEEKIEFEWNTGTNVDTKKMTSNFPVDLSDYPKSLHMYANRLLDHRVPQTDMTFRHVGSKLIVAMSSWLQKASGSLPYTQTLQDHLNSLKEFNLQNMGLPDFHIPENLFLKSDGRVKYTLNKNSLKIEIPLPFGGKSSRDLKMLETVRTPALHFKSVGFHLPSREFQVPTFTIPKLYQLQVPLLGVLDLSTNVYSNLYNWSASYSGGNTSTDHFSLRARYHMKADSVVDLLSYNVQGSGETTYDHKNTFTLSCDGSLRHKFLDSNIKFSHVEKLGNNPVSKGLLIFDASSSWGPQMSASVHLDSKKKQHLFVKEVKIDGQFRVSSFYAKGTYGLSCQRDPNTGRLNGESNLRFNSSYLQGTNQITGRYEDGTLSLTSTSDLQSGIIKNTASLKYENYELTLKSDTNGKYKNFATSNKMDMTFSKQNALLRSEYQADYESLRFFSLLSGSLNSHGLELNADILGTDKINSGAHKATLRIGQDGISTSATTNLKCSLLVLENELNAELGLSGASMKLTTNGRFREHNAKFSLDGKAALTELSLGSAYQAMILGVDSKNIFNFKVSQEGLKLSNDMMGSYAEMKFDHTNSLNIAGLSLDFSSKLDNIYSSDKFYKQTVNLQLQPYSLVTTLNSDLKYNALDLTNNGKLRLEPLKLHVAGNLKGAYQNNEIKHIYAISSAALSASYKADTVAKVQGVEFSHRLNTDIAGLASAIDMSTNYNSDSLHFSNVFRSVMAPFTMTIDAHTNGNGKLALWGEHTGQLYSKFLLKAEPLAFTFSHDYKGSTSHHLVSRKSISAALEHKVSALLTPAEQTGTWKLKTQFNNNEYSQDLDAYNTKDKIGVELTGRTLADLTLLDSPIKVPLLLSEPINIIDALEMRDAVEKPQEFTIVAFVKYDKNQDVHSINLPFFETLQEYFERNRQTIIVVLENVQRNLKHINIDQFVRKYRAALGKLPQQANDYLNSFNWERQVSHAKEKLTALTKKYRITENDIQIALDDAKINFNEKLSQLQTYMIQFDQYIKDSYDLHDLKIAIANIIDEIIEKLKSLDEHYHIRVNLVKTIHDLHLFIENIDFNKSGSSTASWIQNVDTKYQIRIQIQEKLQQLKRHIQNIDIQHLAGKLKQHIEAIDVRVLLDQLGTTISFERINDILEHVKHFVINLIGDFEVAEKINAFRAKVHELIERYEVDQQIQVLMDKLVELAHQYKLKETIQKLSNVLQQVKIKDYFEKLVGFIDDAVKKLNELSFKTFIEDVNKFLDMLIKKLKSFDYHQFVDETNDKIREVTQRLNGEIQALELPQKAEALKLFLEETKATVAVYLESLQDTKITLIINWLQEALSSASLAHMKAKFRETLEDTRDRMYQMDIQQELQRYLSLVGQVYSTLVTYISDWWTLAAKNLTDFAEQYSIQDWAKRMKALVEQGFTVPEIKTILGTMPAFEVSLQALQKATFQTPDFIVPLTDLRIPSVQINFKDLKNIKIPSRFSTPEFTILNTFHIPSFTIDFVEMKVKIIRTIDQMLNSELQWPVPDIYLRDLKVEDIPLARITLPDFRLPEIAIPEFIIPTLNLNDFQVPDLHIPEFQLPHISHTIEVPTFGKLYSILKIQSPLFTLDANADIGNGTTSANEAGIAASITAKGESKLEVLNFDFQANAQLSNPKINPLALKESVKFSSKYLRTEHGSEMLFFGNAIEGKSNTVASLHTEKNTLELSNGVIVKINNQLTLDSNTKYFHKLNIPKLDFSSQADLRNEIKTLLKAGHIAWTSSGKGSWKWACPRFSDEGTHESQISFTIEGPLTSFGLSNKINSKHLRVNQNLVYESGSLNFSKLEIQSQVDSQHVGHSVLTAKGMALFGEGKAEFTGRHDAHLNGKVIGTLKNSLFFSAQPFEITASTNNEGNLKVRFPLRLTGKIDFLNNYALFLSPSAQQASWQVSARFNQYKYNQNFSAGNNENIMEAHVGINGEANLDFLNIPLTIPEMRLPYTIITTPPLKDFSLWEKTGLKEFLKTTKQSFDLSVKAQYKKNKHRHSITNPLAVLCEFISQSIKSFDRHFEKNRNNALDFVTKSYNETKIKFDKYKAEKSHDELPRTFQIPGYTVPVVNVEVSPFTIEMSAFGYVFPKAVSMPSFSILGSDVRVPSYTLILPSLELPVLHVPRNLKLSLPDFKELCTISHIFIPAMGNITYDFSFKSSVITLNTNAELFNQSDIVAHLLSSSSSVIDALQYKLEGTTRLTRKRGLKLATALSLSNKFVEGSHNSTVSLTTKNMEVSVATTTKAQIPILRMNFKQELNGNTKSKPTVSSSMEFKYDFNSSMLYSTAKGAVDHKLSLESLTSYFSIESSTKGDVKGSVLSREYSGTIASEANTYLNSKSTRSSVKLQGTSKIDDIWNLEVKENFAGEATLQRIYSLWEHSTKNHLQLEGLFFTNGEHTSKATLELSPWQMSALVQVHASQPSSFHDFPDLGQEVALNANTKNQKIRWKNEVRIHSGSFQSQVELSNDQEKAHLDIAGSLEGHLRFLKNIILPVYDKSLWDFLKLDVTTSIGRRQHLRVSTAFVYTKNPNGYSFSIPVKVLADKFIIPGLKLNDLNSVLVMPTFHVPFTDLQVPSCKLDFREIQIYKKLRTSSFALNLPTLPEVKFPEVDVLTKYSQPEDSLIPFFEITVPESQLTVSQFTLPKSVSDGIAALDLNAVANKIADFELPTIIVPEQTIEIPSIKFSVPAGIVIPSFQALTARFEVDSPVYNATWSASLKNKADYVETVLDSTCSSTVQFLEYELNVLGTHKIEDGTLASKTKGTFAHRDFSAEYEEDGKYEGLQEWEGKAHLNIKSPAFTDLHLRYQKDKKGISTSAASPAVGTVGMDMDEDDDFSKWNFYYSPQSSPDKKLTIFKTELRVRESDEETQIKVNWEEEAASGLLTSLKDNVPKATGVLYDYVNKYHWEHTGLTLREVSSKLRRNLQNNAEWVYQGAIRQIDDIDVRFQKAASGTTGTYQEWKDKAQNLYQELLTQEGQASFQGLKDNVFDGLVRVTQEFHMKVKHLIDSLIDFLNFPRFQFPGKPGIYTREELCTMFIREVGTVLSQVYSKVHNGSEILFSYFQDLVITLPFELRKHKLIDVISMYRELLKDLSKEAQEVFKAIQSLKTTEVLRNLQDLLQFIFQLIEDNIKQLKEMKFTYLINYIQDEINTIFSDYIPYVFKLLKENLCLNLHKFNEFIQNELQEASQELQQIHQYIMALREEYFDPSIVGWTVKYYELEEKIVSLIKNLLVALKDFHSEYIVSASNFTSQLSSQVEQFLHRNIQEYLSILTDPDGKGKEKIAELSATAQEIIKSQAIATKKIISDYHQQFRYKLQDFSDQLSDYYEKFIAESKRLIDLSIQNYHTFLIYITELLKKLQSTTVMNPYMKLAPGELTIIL
The description is as above. On the procedure: as §1, §2

Experiment [3] concerns the target T4, fully oxidized LDL. Nature of the experiment: phage ELISA on oxidized LDL.
The target in experiment [4] is T5, F-AGE (AGEs prepared by fructose treatment of BSA) (bovine, UniProt P02769 25-607, glycated by fructose, 37 C for 12 weeks (sites not given)).
T5 construct: also called F-AGEs; fructose treated BSA
T5 sequence (P02769 25-607 limits assumed): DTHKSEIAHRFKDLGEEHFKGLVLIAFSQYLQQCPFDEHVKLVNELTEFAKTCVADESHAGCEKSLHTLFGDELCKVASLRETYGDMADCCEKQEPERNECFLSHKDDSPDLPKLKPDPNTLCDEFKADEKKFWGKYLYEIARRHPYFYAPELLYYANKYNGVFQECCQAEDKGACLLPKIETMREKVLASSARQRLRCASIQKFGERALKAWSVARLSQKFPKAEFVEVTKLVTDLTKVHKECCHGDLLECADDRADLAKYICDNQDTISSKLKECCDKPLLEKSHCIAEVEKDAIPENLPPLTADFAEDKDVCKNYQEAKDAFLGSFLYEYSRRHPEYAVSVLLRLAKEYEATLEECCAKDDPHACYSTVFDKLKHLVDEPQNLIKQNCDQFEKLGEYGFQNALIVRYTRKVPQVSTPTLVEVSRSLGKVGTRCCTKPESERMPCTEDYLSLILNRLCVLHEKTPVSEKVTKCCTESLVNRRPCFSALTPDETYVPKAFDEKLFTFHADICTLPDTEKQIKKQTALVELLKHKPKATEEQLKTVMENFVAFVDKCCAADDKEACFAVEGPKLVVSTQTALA
Nature of the experiment: SPR single cycle kinetics, biotinylated sRAGE on a streptavidin (SA) chip, F-AGE as analyte.

T1 sequence (P04114 28-4563 limits assumed): as the sequence (P04114 28-4563) above

B1: single chain antibody γ+κ 5 expressed from pET-22b(+) in E. coli BL21 (DE3), refolded and purified (scFv)
scFv: MAQVQLQQSGPGLVKPSQTLSLTCAISGDSVSSRDAAWNWIRQSPSRGLEWLGRTYYRSEWYTDYAVSLESRLTVNPDTSRNQFSLQLNSVTPEDTAVYLCARGSSWGHAPAFFDYWGQGTLVTVSSGGGGSGGGGSGGGGSDIQMTQSPSSLSASVEDRVAITCRASQSVSTYVAWYQQKPGKAPKLLISQASSLENGVPSRFSGSGSGTDFTLTISSLQPEDFATYYCQQYTTYPYTFGQGTKLEIKR
notes: Human scFv (VH gamma - linker - V kappa) from a spleen library; detected through its His tag with anti-His-HRP; also called clone No. 5; purified single chain antibody; not shown: C-terminal His tag from pET-22b(+) (XhoI cloning)
For the molecule B1, the detection limit worked out at 5 ng/100 µl well in experiment [1], 10 ng/100 µl well with acetylated LDL, 10 ng/100 µl well with partially oxidized LDL and 20 ng/100 µl well with fully oxidized LDL [2].

B2: single chain antibody γ+κ 5, pCANTAB5E clone 5 (phage presented and soluble forms) (scFv)
scFv: MAQVQLQQSGPGLVKPSQTLSLTCAISGDSVSSRDAAWNWIRQSPSRGLEWLGRTYYRSEWYTDYAVSLESRLTVNPDTSRNQFSLQLNSVTPEDTAVYLCARGSSWGHAPAFFDYWGQGTLVTVSSGGGGSGGGGSGGGGSDIQMTQSPSSLSASVEDRVAITCRASQSVSTYVAWYQQKPGKAPKLLISQASSLENGVPSRFSGSGSGTDFTLTISSLQPEDFATYYCQQYTTYPYTFGQGTKLEIKR
notes: the phage-presented and the soluble form are kept under one id, the assay field tells which was used; not shown: C-terminal E tag from pCANTAB5E (phage form: fused to the phage coat protein)
In the experiment with fully oxidized LDL [3], B2 showed an A450 of at least 0.6 A450.

B3: E. coli form biotinylated sRAGE (Comparative Example 2) (receptor)
chain: AQNITARIGEPLVLKCKGAPKKPPQRLEWKLNTGRTEAWKVLSPQGGGPWDSVARVLPNGSLFLPAVGIQDEGIFRCQAMNRNGKETKSNYRVRVYQIPGKPEIVDSASELTAGVPNKVGTCVSEGSYPAGTLSWHLDGKPLVPNEKGVSVKEQTRRHPETGLFTLQSELMVTPARGGDPRPTFSCSFSPGLPRHRALRTAPIQPRVWEPVPLEEVQLVVEPEGGAVAPGGTVTLTCEVPAQPSPQIHWMKDGVPLPLPPSPVLILPEIGPQDQGTYSCVATHSSHGPQESRAVSISIIEPGEEGPTAGSGLNDIFEAQKIEWHE
notes: Not glycosylated; expressed in Origami B (DE3) together with a biotin ligase; also called E. coli form sRAGE; purified soluble biotinylated RAGE; not shown: His tag present at the N-terminus
Molecule B3 returned a Kd in experiment [4] of 0.28 µM.

B4: single chain antibody γ+κ 96, pCANTAB5E clone 96 (phage presented and soluble forms) (scFv)
scFv: MAEVQLVESGAEAKKPGESLKISCKGSGYSFTTNWIGWVRQLPGKGLDWMGIIYPDDSDTRYSPSFQGQVTISADKSISTAYLQWNSLKASDTAMYYCARRQWGSFDLWGQGTMVTVSSGGGGSGGGGSGGGGSEIVLTQSPATLSLSPGERATLSCRASQSVSSFLAWYQQKPGQAPRLLIYGASSRATGIPDRFSGSGSGTDFTLTINRLEPEDFAVYYCQYYGSSGTFGQGTKVEIKR
notes: not shown: C-terminal E tag from pCANTAB5E
The molecule B4 registered an A450 with fully oxidized LDL [3] of at least 0.6 A450.

B5: single chain antibody γ+κ 12, pCANTAB5E clone 12 (phage presented and soluble forms) (scFv)
scFv: MAQVQLQQSGPGLVKPSQTLSLTCDISGDSISTNGAAWNWIRQSPSRGLEWLGRTFYRSKWYNDYAVSVKSRMIINPDTSKNQFSLQLSSVTPEDTAVYYCARVACSGGTCLDGIDVWGQGTTVTVSSGGGGSGGGGSGGGGSDIVMTQSPSSLSASVGERVTITCRASQAIRNDLGWYQQKPGKAPKLLVYSASNLQSGVPSRFSGSGSGTDFTLTISSLQPEDFATYYCQQYHSYPRTFSQGTKLEIKR
notes: as for B4
In the experiment with fully oxidized LDL [3], B5 came in with an A450 of at least 0.6 A450.

B6: single chain antibody γ+κ 40, pCANTAB5E clone 40 (phage presented and soluble forms) (scFv)
scFv: MAQVQLVQSGVELRKPGDSVKVSCKASGYSVNTHGMSWVRQAPGQGLEWLGRISSYIGLTKFAQKFQDRVTLTTDTSTNTAYLEMRSLKSDDTAVYFCGRDDYEYDAFDVWGQGTMVTVSSGGGGSGGGGSSGGGSEIVLTQSPATLSVSPGERATLSCRTTESVTDSQLAWYQQKPGQAPRLLIYGPSTRATGIPDRFSGSGSGTDFTLTISGLEPEDFAVYYCQQRNSWYTFGQGTKLEIKR
notes: as for B4
Molecule B6 came in with an A450 with fully oxidized LDL [3] of at least 0.6 A450.

B7: silkworm form biotinylated sRAGE (silkworm coexpressing BirA, biotin feed, Example 19) (receptor)
chain: GHHHHHHHHHHSSGHIDDDDKHMAQNITARIGEPLVLKCKGAPKKPPQRLEWKLNTGRTEAWKVLSPQGGGPWDSVARVLPNGSLFLPAVGIQDEGIFRCQAMNRNGKETKSNYRVRVYQIPGKPEIVDSASELTAGVPNKVGTCVSEGSYPAGTLSWHLDGKPLVPNEKGVSVKEQTRRHPETGLFTLQSELMVTPARGGDPRPTFSCSFSPGLPRHRALRTAPIQPRVWEPVPLEEVQLVVEPEGGAVAPGGTVTLTCEVPAQPSPQIHWMKDGVPLPLPPSPVLILPEIGPQDQGTYSCVATHSSHGPQESRAVSISIIEPGEEGPTAGSRSGAGTPVTAPLAGTIWKVLASEGQTVAAGEVLLILEAMKMETEIRAAQAGTVRGIAVKAGDAVAVGDTLMTLAGTKLGPEQKLISEEDLNSAVDHHHHHH
modifications: a single biotin on the biotinylation tag; silkworm form N-linked sugar chains at two sites
notes: also called Biotin tag sRAGE; Biotin-RAGE
B7 came in with a Kd in experiment [4] of 0.22 µM. That is a sub-micromolar value.

B8: single chain antibody γ+κ 19, pCANTAB5E clone 19 (phage presented and soluble forms) (scFv)
scFv: MAEVQLVESGAEVKNPGASVKVSCKASGYTLTGYYMHWVRQAPGQGLEWMGGIIPMYGTPTYAPRFQGRVTFTADYSTNTVYMELRSLRSEDTAVFYCARQADSASYLDYWGQGTLVTVSSGGGGSGGGGSGGGGSDVVMTQSPGTLSLSPGERATLSCRASQSLDSSYLAWYQQKPGRAPRLLIYGASDRDTGIPDRFSGSGSGTDFTLTISRLEPEDFAVYYCQQYGRSRTFGQGTKLEIKR
notes: as for B4
Regarding B8, the A450 with fully oxidized LDL [3] was at least 0.6 A450.
